This note sets out measurements from article PMC6757106, “Prokaryotic soluble overexpression and purification of oncostatin M using a fusion approach and genetically engineered E. coli strains” (Scientific Reports, 2019).

Series [1] deals with the molecule itself. In words: non-reducing SDS-PAGE; final purified tag-free OSM run on 10% tricine SDS-PAGE under reducing and non-reducing conditions, Coomassie stained.
Series [2] concerns the molecule itself. In words: SEC; HiLoad 16/600 Superdex 75 pg, 1x PBS pH 7.4, 1 mL/min; final proteins after tag cleavage. On the technique in general: In gel filtration, larger molecules generally elute earlier.

B1: Human Oncostatin M (OSM), tag-free, purified from the MBP-OSM fusion expressed in BL21(DE3) (ligand, UniProt P13725 26-221, looked up)
chain: AAIGSCSKEYRVLLGQLQKQTDLMQDTSRLLDPYIRIQGLDVPKLREHCRERPGAFPSEETLRGLGRRGFLQTLNATLGCVLHRLADLEQRLPKAQDLERSGLNIEDLEKLQMARPNILGLRNNIYCMAQLLDNSDTAEPTKAGRGASQPPTPTPASDAFQRKLEGCRFLHGYHRFMHSVGRVFSKWGESPNRSRR
notes: Oncostatin M, human; Tag removed with TEV protease at ENLYFQ/G; surmised); Printed size 22.05 kDa; also called MBP fusion-derived OSM; OSM purified from MBP-OSM; source: E. coli BL21(DE3), 18 °C, purified (IMAC, TEV protease cleavage, second IMAC); not shown: His6, N-terminal, cleaved; MBP, N-terminal, cleaved
Take B1: the binding result in series [1] is listed as “binds”.

B2: Human Oncostatin M (OSM), tag-free, purified from the His6-OSM fusion expressed in Origami 2 (ligand, UniProt P13725 26-221, looked up)
chain: AAIGSCSKEYRVLLGQLQKQTDLMQDTSRLLDPYIRIQGLDVPKLREHCRERPGAFPSEETLRGLGRRGFLQTLNATLGCVLHRLADLEQRLPKAQDLERSGLNIEDLEKLQMARPNILGLRNNIYCMAQLLDNSDTAEPTKAGRGASQPPTPTPASDAFQRKLEGCRFLHGYHRFMHSVGRVFSKWGESPNRSRR
notes: Oncostatin M, human; Tag removed with TEV protease at ENLYFQ/G; a glycine probably stays at the N-terminus (surmised from the cysteine numbering); Printed size 22.05 kDa; also called His6 fusion-derived OSM; OSM purified from His-OSM; source: E. coli Origami 2(DE3), 18 °C, purified (IMAC with 2 M urea, TEV protease cleavage, second IMAC); not shown: His6, N-terminal, cleaved
Consider B2, for which the binding result in series [2] was “binds”.
